A word on the Kd: it is the concentration at which binding is half-saturated.

Data on 8 molecules can be found in patent publication US10766960 (dated 2020).

Test in all cases: SPR
Experiment [1] concerns the target T1, FcgRIIIa F (human, UniProt P08637).
For experiment [2], the target named is T1, FcgRIIIa F. This is another data set of the same source.
For experiment [3], the target named is T2, FcgRIIa H (human, UniProt P12318).
T2 chain: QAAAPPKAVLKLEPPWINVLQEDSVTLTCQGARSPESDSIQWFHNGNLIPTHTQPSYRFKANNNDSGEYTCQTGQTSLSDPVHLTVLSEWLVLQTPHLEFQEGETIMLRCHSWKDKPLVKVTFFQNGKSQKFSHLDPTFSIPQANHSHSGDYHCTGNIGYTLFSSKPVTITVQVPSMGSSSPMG

In experiment [4] the target is T1, FcgRIIIa F. This is another data set of the same source.
Experiment [5] concerns the target T3, FcgRIa (human, UniProt P12314).
T3 chain: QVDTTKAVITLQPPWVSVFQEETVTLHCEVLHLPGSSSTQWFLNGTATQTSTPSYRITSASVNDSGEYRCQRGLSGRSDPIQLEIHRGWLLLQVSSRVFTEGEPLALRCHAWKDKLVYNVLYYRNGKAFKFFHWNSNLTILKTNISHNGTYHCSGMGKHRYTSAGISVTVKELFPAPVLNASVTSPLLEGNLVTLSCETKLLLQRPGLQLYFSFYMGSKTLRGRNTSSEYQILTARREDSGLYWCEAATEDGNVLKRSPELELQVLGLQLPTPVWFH

Experiment [6] deals with T4, FcgRIIa R (human, UniProt P12318).
T4 chain: T2 chain with H134R

Experiment [7] addresses T5, FcgRIIb (human, UniProt P31994).
T5 chain: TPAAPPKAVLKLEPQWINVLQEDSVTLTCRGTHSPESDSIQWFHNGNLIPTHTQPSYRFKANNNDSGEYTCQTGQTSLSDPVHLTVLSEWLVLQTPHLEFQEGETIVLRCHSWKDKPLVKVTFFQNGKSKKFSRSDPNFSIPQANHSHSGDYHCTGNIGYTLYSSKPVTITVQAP

In experiment [8] the target is T5, FcgRIIb.
Experiment [9] concerns the target T6, FcgRIIIa V (human, UniProt P08637).
Experiment [10] addresses T5, FcgRIIb.
Experiment [11] concerns the target T6, FcgRIIIa V. The source holds these as a separate data set.
In experiment [12] the target is T3, FcgRIa.
Experiment [13] concerns the target T1, FcgRIIIa F. The source holds these as a separate data set.
Experiment [14] concerns the target T2, FcgRIIa H.
The target of experiment [15] is T5, FcgRIIb.
Experiment [16] has as its target T4, FcgRIIa R.

Numbering of substitutions follows the chain as printed. Like-named read-outs stand apart in the source and are kept apart here.

T6 sequence (P08637 17-208 F176V): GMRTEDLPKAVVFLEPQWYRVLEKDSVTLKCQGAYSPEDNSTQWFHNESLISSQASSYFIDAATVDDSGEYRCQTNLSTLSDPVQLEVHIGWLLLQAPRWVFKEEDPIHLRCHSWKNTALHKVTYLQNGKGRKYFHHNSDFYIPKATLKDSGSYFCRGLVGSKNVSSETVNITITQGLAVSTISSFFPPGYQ
T1 sequence (P08637 17-208): as the sequence (P08637 17-208 F176V) above, with V160F counted along it

B1: GpH7-TA7/GpH7-TA58/GpL16-k0 (antibody)
chain 1: QVQLVQSGAEVKKPGASVTVSCKASGYTFTDYEMHWIRQPPGEGLEWIGAIDPKTGDTAYSESFQDRVTLTADKSTSTAYMELSSLTSEDTAVYYCTRFYSYTYWGQGTLVTVSSASTKGPSVFPLAPSSKSTSGGTAALGCLVKDYFPEPVTVSWNSGALTSGVHTFPAVLQSSGLYSLSSVVTVPSSSLGTQTYICNVNHKPSNTKVDKKVEPKSCDKTHTCPPCPAPEYLWGPSVFLFPPKPKDTLMISRTPEVTCVVVDVSHEDPEVKFNWYVDGVEVHNAKTKPREEQYNATYRVVSVLTVLHQDWLNGKEYKCKVSNKALPAPIEKTISKAKGQPREPQVYTLPPSRKELTKNQVSLTCLVKGFYPSDIAVEWESNGQPENNYKTTPPVLDSDGSFFLYSKLTVDKSRWQQGNVFSCSVMHEALHNRYTQKSLSLSP
chain 2: B1 chain 1 with Y232L, W234G, S237D, Y294W, A296S, A328L, I330E, K354D, R433H, K437E
chain 3: DIVMTQSPLSLPVTPGEPASISCQASESLVHSNRNTYLHWYLQKPGQSPQLLIYKVSNRFSGVPDRFSGSGSGTDFTLKISRVEAEDVGVYYCSQNTHVPPTFGQGTKVEIERTVAAPSVFIFPPSDEQLKSGTASVVCLLNNFYPREAKVQWKVDNALQSGNSQESVTEQDSKDSTYSLSSTLTLSKADYEKHKVYACEVTHQGLSSPVTKSFNRGEC
As for B1, the Kd with FcgRIIIa F [1] is 3.3 nM.

B2: GpH7-TA52/GpH7-B78/GpL16-k0 (antibody)
chain 1: B1 chain 1 with Y294W
chain 2: B1 chain 1 with Y232L, W234G, S237D, A296S, A328L, I330E, K354D, R433H, K437E
chain 3: B1 chain 3
In the experiment with FcgRIIIa F [1], B2 yielded a Kd of 2.3 nM.

B3: GpH7-A44/GpH7-B80/GpL16-k0 (antibody)
chain 1: B1 chain 1 with Y232L, W234G, A296S, I330E
chain 2: not shown
chain 3: B1 chain 3
B3 returned a Kd with FcgRIIIa F [2] of 230 nM.

B4: GpH7-A5/GpH7-B80/GpL16-k0 (antibody)
chain 1: not shown
chain 2: not shown
chain 3: B1 chain 3
With B4, the Kd with FcgRIIIa F [2] came out at 470 nM.

B5: GpH7-A44/GpH7-B3/GpL16-k0 (antibody)
chain 1: B1 chain 1 with Y232L, W234G, A296S, I330E
chain 2: not shown
chain 3: B1 chain 3
Regarding B5, binding in the experiment with FcgRIIIa F [2] was characterised by a dissociation constant (Kd) of 370 nM. The Kd values of the last two molecules are within 1.5-fold of each other.

B6: H240-G1d/L73-k0 (antibody)
chain 1: not shown
chain 2: DIQMTQSPSSLSASVGDRVTITCRASQDIHKYIAWYQQKPGQAPRLLIQYTSTLQPGVPSRFSGSGSGTDYTFTISSLQPEDIATYYCLQYEQLRTFGGGTKVEIKRTVAAPSVFIFPPSDEQLKSGTASVVCLLNNFYPREAKVQWKVDNALQSGNSQESVTEQDSKDSTYSLSSTLTLSKADYEKHKVYACEVTHQGLSSPVTKSFNRGEC
For the molecule B6, the Kd with FcgRIIa H [3] is 660 nM; with FcgRIIIa F [4], 1400 nM; with FcgRIa [5] it was 0.23 nM; in the experiment with FcgRIIa R [6], 880 nM; with FcgRIIb [7], 6100 nM; with FcgRIIb [8], 6000 nM. In the experiment with FcgRIIIa V [9], this molecule returned a Kd of 310 nM.

B7: H240-Kn032/H240-Hl032/L73-k0 (antibody)
chain 1: QDQLVQSGAEVKKPGASVKVSCKASGFNIKDTYIQWVRQAPGQGLEWMGRIDPLRKQTKYREKFEGRVTITADTSTNTAYMELSSLRSEDTAVYYCVRSGREFDYWGQGTLVTVSSASTKGPSVFPLAPSSKSTSGGTAALGCLVKDYFPEPVTVSWNSGALTSGVHTFPAVLQSSGLYSLSSVVTVPSSSLGTQTYICNVNHKPSNTKVDKKVEPKSCDKTHTCPPCPAPELLGGPDVFLFPPKPKDTLMISRTPEVTCVVVDVSHEDPEVKFNWYVDGVEVHNAKTKPREEQYNSTYRVVSVLTVLHQDWLNGKEYKCKVSNKALPLPEEKTISKAKGQPREPQVCTLPPSRDELTKNQVSLWCLVKGFYPSDIAVEWESNGQPENNYKTTPPVLDSDGSFFLYSKLTVDKSRWQQGNVFSCSVMHEALHNHYTQKSLSLSP
chain 2: B7 chain 1 with C348Y, D355C, W365S, L367A, Y406V
chain 3: B6 chain 2
For B7, the dissociation constant (Kd) with FcgRIIa H [3] worked out at 690 nM; with FcgRIIb [10], 630 nM; in the experiment with FcgRIIIa F [4], 9.1 nM; with FcgRIa [5], 0.073 nM; with FcgRIIa R [6], 340 nM; with FcgRIIb [8], 620 nM. Besides, the Kd with FcgRIIIa V [9] came to 3.1 nM.

B8: H240-Kn033/H240-Hl033/L73-k0 (antibody)
chain 1: not shown
chain 2: not shown
chain 3: B6 chain 2
Consider B8, for which the Kd with FcgRIIa H [3] was 930 nM; with FcgRIIIa V [11], 48 nM; in the experiment with FcgRIa [12], 0.095 nM; with FcgRIIIa F [13], 290 nM; with FcgRIIa H [14] it was 520 nM; with FcgRIIb [10], 4200 nM. The dissociation constant (Kd) in the experiment with FcgRIIIa F [4] turned out to be 2600 nM; in the experiment with FcgRIIb [15], 3300 nM; in the experiment with FcgRIa [5] it was 0.25 nM; with FcgRIIa R [6], 1000 nM; with FcgRIIb [8], 4100 nM; in the experiment with FcgRIIIa V [9] it was 390 nM. Also, in the experiment with FcgRIIa R [16], the Kd amounted to 740 nM.
